± gives the uncertainty stated by the source.
Experiment: self-splicing fitness, log relative to wild type (ln ratio); higher = more splicing; Tetrahymena group I intron in knt gene, E. coli kanamycin selection, DiMSum; sequences stand for … in CUCUCU…GGAGGGAAAAGUUAUCAGGCAUGCACCUGGUAGCUAGUCUUUAAACCAAUAGAUUGCAUCGGUUUAAAAGGCAAGACCGUCAAAUUGCGGGAAAGGGGUCAACAGCCGUUCAGUACCAAGUCUCAGGGGAAACUUUGAGAUGGCCUUGCAAAGGGUAUGGUAAUAAGCUGACGGACAUGGUCCUAACCACGCAGCCAAGUCCUAAGUCAACAGAUCUUCUGUUGAUAUGGAUGCAGUUCACAGACUAAAUGUCGGUCGGGGAAGAUGUAUUCUUCUCAUAAGAUAUAGUCGGACCUCUCCUUAAUGGGAGCUAGCGGAUGAAGUGAUGCAACACUGGAGCCGCUGGGAACUAAUUUGUAUGCGAAAGUAUAUUGAUUAGUUUUGGAGUACUCGUGGUCG
In short: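 Library with all eight P1ex-region intron nucleotides randomised, intron inside the knt kanamycin-resistance gene on pET-22b(+), in E. coli BL21(DE3). Cells grew overnight at 37°C or 30°C on LB agar with or without 25 μg/mL kanamycin (plus 100 μg/mL carbenicillin, 50 μM IPTG, 0.2% rhamnose), in six replicate transformations. Pooled colonies were amplicon-sequenced on Illumina HiSeq 2500. DiMSum fitness is the error-weighted combination of wild-type-normalised replicate fold changes, kanamycin versus none.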

**Q.** What does the source list for AAAAAGCAAUAUUACGGACG?
**A.** self-splicing fitness (ln) (30 °C): -0.378 ± 0.064; self-splicing fitness (ln) (37 °C): 0.25 ± 0.084

**Q.** What does the source list for ACAAAGCAAUAUUACGAAGG?
**A.** self-splicing fitness (ln) (30 °C): -2.52 ± 0.087; self-splicing fitness (ln) (37 °C): -1.75 ± 0.12

**Q.** With GGCUAGCAAUAUUACGGUCG as the sequence, how does the “self-splicing fitness (ln)” value (30 °C) read?
**A.** 0.0358 ± 0.11

**Q.** And the “self-splicing fitness (ln)” value (37 °C)?
**A.** -0.669 ± 0.12

**Q.** With GAACAGCAAUAUUACGAGGU as the sequence, how does the “self-splicing fitness (ln)” value (30 °C) read?
**A.** -3.08 ± 0.14

**Q.** What about the “self-splicing fitness (ln)” value (37 °C) of the same sequence?
**A.** -1.71 ± 0.12

**Q.** What does the source list for AACAAGCAAUAUUACGCUAG?
**A.** self-splicing fitness (ln) (30 °C): -3.74 ± 0.19; self-splicing fitness (ln) (37 °C): -1.98 ± 0.15

**Q.** With UAAGAGCAAUAUUACGUUAU as the sequence, how does the “self-splicing fitness (ln)” value (30 °C) read?
**A.** -3.21 ± 0.44

**Q.** For GCUGAGCAAUAUUACGACUA, which “self-splicing fitness (ln)” value (30 °C) is on record?
**A.** -1.55 ± 0.22

**Q.** And the “self-splicing fitness (ln)” value (37 °C)?
**A.** -1.72 ± 0.21

**Q.** Which results are given for UUCAAGCAAUAUUACGUAAG?
**A.** self-splicing fitness (ln) (30 °C): -1.89 ± 0.074; self-splicing fitness (ln) (37 °C): -0.866 ± 0.077

**Q.** Which results are given for CGUUAGCAAUAUUACGUGAA?
**A.** self-splicing fitness (ln) (30 °C): -2.48 ± 0.15; self-splicing fitness (ln) (37 °C): -1.45 ± 0.15

**Q.** With UGCAAGCAAUAUUACGAGAA as the sequence, how does the “self-splicing fitness (ln)” value (30 °C) read?
**A.** -2.52 ± 0.47

**Q.** And the “self-splicing fitness (ln)” value (37 °C)?
**A.** -1.94 ± 0.27

**Q.** What does the source list for AAAAAGCAAUAUUACGCAGG?
**A.** self-splicing fitness (ln) (30 °C): -2.42 ± 0.15; self-splicing fitness (ln) (37 °C): -1.03 ± 0.14

**Q.** With ACCCAGCAAUAUUACGGCGG as the sequence, how does the “self-splicing fitness (ln)” value (30 °C) read?
**A.** -2.11 ± 0.08

**Q.** And the “self-splicing fitness (ln)” value (37 °C)?
**A.** -1.04 ± 0.11

**Q.** For UGCGAGCAAUAUUACGGAUG, which “self-splicing fitness (ln)” value (30 °C) is on record?
**A.** -3.65 ± 0.16

**Q.** What about the “self-splicing fitness (ln)” value (37 °C) of the same sequence?
**A.** -2.02 ± 0.14

**Q.** What does the source list for AGGUAGCAAUAUUACGAAGA?
**A.** self-splicing fitness (ln) (30 °C): -2.84 ± 0.03; self-splicing fitness (ln) (37 °C): -1.83 ± 0.038

**Q.** For CUAGAGCAAUAUUACGGACG, which “self-splicing fitness (ln)” value (30 °C) is on record?
**A.** 0.0877 ± 0.07

**Q.** What about the “self-splicing fitness (ln)” value (37 °C) of the same sequence?
**A.** 0.427 ± 0.097

**Q.** Which results are given for AGCGAGCAAUAUUACGUCUA?
**A.** self-splicing fitness (ln) (30 °C): -1.92 ± 0.13; self-splicing fitness (ln) (37 °C): -2 ± 0.11

**Q.** For CUUUAGCAAUAUUACGAGGC, which “self-splicing fitness (ln)” value (30 °C) is on record?
**A.** -2.85 ± 0.41

**Q.** And the “self-splicing fitness (ln)” value (37 °C)?
**A.** -1.36 ± 0.26

**Q.** With GGUGAGCAAUAUUACGGUGC as the sequence, how does the “self-splicing fitness (ln)” value (30 °C) read?
**A.** -2.09 ± 0.14

**Q.** And the “self-splicing fitness (ln)” value (37 °C)?
**A.** -0.734 ± 0.2

**Q.** With GGGAAGCAAUAUUACGCGGG as the sequence, how does the “self-splicing fitness (ln)” value (30 °C) read?
**A.** -1.49 ± 0.23

**Q.** And the “self-splicing fitness (ln)” value (37 °C)?
**A.** -1.8 ± 0.25

**Q.** What does the source list for UAUAAGCAAUAUUACGAUUU?
**A.** self-splicing fitness (ln) (30 °C): -1.43 ± 0.091; self-splicing fitness (ln) (37 °C): -0.65 ± 0.1

**Q.** For UAUAAGCAAUAUUACGGGCA, which “self-splicing fitness (ln)” value (30 °C) is on record?
**A.** -0.658 ± 0.11

**Q.** And the “self-splicing fitness (ln)” value (37 °C)?
**A.** 0.213 ± 0.12

**Q.** Which “self-splicing fitness (ln)” value (30 °C) does the source give for GAUGAGCAAUAUUACGGUAA here?
**A.** -2.21 ± 0.29

**Q.** And the “self-splicing fitness (ln)” value (37 °C)?
**A.** -2.95 ± 0.38

**Q.** With CUCAAGCAAUAUUACGCGAU as the sequence, how does the “self-splicing fitness (ln)” value (30 °C) read?
**A.** -2.3 ± 0.11

**Q.** What about the “self-splicing fitness (ln)” value (37 °C) of the same sequence?
**A.** -0.996 ± 0.11

**Q.** Which “self-splicing fitness (ln)” value (30 °C) does the source give for CAAUAGCAAUAUUACGAGGC here?
**A.** -3.6 ± 0.33

**Q.** What about the “self-splicing fitness (ln)” value (37 °C) of the same sequence?
**A.** -1.44 ± 0.31

**Q.** Which results are given for UCAGAGCAAUAUUACGCGAA?
**A.** self-splicing fitness (ln) (30 °C): -2.61 ± 0.21; self-splicing fitness (ln) (37 °C): -3.1 ± 0.29

**Q.** Which “self-splicing fitness (ln)” value (30 °C) does the source give for GUUGAGCAAUAUUACGACAA here?
**A.** -2.38 ± 0.33

**Q.** And the “self-splicing fitness (ln)” value (37 °C)?
**A.** -2.54 ± 0.44

**Q.** Which results are given for GUUGAGCAAUAUUACGUAGU?
**A.** self-splicing fitness (ln) (30 °C): -2.05 ± 0.15; self-splicing fitness (ln) (37 °C): -1.31 ± 0.18

**Q.** Which “self-splicing fitness (ln)” value (30 °C) does the source give for GAACAGCAAUAUUACGUGAC here?
**A.** -1.63 ± 0.11

**Q.** What about the “self-splicing fitness (ln)” value (37 °C) of the same sequence?
**A.** -0.482 ± 0.15

**Q.** Which “self-splicing fitness (ln)” value (30 °C) does the source give for UCACAGCAAUAUUACGUCCC here?
**A.** -4.32 ± 0.42

**Q.** And the “self-splicing fitness (ln)” value (37 °C)?
**A.** -2.01 ± 0.45

**Q.** What does the source list for CGACAGCAAUAUUACGAGAC?
**A.** self-splicing fitness (ln) (30 °C): -4.34 ± 0.3; self-splicing fitness (ln) (37 °C): -2.57 ± 0.26

**Q.** With AUAUAGCAAUAUUACGCCAA as the sequence, how does the “self-splicing fitness (ln)” value (30 °C) read?
**A.** -1.24 ± 0.45

**Q.** What about the “self-splicing fitness (ln)” value (37 °C) of the same sequence?
**A.** -0.89 ± 0.42

**Q.** Which “self-splicing fitness (ln)” value (30 °C) does the source give for UAUAAGCAAUAUUACGCUUG here?
**A.** -1.75 ± 0.15

**Q.** And the “self-splicing fitness (ln)” value (37 °C)?
**A.** -0.76 ± 0.14

**Q.** What does the source list for ACUUAGCAAUAUUACGUGCA?
**A.** self-splicing fitness (ln) (30 °C): -1.1 ± 0.055; self-splicing fitness (ln) (37 °C): -0.535 ± 0.072

**Q.** Which results are given for UUUGAGCAAUAUUACGACGA?
**A.** self-splicing fitness (ln) (30 °C): -0.573 ± 0.15; self-splicing fitness (ln) (37 °C): 0.211 ± 0.18

**Q.** Which results are given for GACGAGCAAUAUUACGCGAU?
**A.** self-splicing fitness (ln) (30 °C): -2.42 ± 0.26; self-splicing fitness (ln) (37 °C): -2.36 ± 0.45

**Q.** With AUGUAGCAAUAUUACGGGUA as the sequence, how does the “self-splicing fitness (ln)” value (30 °C) read?
**A.** -2.63 ± 0.24

**Q.** What about the “self-splicing fitness (ln)” value (37 °C) of the same sequence?
**A.** -0.0625 ± 0.14

**Q.** With CUCCAGCAAUAUUACGGACU as the sequence, how does the “self-splicing fitness (ln)” value (30 °C) read?
**A.** -2.61 ± 0.24

**Q.** And the “self-splicing fitness (ln)” value (37 °C)?
**A.** -2.07 ± 0.33

Source: the supplement of paper PMC7877785
